Source: article PMC9574375 (Cancer Research, 2022)
Where two headings read alike, the source gives them in different places.

Legend:
[1] = molecular target: the molecule itself; test: non-reducing SDS-PAGE and immunoblot or Coomassie staining
[2] = molecular target: the molecule itself; test: as above; remark: listed apart in the source

Protein | binding result [1] | binding result [2]
GST-tagged RET CLD4-CRD (amino acids 382–635) D567N (domain or fragment, human, UniProt P07949 382-635, looked up) QGPGAGVLLLHFNVSVLPVSLHLPSTYSLSVSRRARRFAQIGKVCVENCQAFSGINVQYKLHSSGANCSTLGVVTSAEDTSGILFVNDTKALRRPKCAELHYMVVATDQQTSRQAQAQLLVTVEGSYVAEEAGCPLSCAVSKRRLECEECGGLGSPTGRCEWRQGDGKGITRNFSTCSPSTKTCPNGHCDVVETQDINICPQDCLRGSIVGGHEPGEPRGIKAGYGTCNCFPEEEKCFCEPEDIQDPLCDELCR | binds | –
GST-tagged RET CLD4-CRD (amino acids 382–635), wild type (domain or fragment, human, UniProt P07949 382-635, looked up) QGPGAGVLLLHFNVSVLPVSLHLPSTYSLSVSRRARRFAQIGKVCVENCQAFSGINVQYKLHSSGANCSTLGVVTSAEDTSGILFVNDTKALRRPKCAELHYMVVATDQQTSRQAQAQLLVTVEGSYVAEEAGCPLSCAVSKRRLECEECGGLGSPTGRCEWRQGDGKGITRNFSTCSPSTKTCPDGHCDVVETQDINICPQDCLRGSIVGGHEPGEPRGIKAGYGTCNCFPEEEKCFCEPEDIQDPLCDELCR | – | binds
